Measurements taken from doi:10.1101/2023.01.28.526015.
Read-outs that look alike come from different tables or passages of the source.

What was measured:
[1] = target: DesAOMT, O-methyltransferase from Desulfuromonas acetoxidans (Desulfuromonas acetoxidans); assay: crystal structure
[2] = target: DesAOMT, O-methyltransferase from Desulfuromonas acetoxidans (Desulfuromonas acetoxidans); assay: SEC
[3] = target: StrAOMT, O-methyltransferase from Streptomyces avermitilis (Streptomyces avermitilis); assay: crystal structure
[4] = target: StrAOMT, O-methyltransferase from Streptomyces avermitilis (Streptomyces avermitilis); assay: crystal structure; remark: listed apart in the source

Substance | stoichiometry N [1] | stoichiometry N [2] | stoichiometry N [3] | stoichiometry N [4]
DesAOMT, O-methyltransferase from Desulfuromonas acetoxidans (enzyme) | 2 | 2 | – | –
StrAOMT, O-methyltransferase from Streptomyces avermitilis (enzyme) | – | – | 2 | 2
